Reference: US20200317816A1 (Novartis, published 2020)

B1: anti-FXI/FXIa antibody NOV1401 (antibody, human IgG1, lambda, V domains shown)
VH: QVQLLESGGGLVQPGGSLRLSCAASGFTFSTAAMSWVRQAPGKGLEWVSGISGSGSSTYYADSVKGRFTISRDNSKNTLYLQMNSLRAEDTAVYYCARELSYLYSGYYFDYWGQGTLVTVSS
VL: QSVLTQPPSASGTPGQRVTISCSGSSSNIGSNDVSWYQQLPGTAPKLLIYKNYNRPSGVPDRFSGSKSGTSASLAISGLQSEDEADYYCSAWDQRQFDVVFGGGTKLTVLG

Legend:
[1] = target: Human FXI in normal human plasma (human, UniProt P03951 19-625); assay: cell-based or functional assay
[2] = target: B1; assay: SPR (ProteOn XPR36), NOV1401 amine-coupled on the chip, Fab as analyte 0.125-4 nM, Langmuir 1:1 fit, 25 C; average of n=2
Description: SPR binding experiments were performed on a ProteOn XPR36 instrument (Bio-Rad Laboratories, Inc.) in PBS/T buffer (50 mM phosphate, 150 mM NaCl, pH 7.4, 0.005% v/v Tween-20) at 25° C. […] Unreacted groups were blocked by injecting 1 M ethanolamine.
Blank surfaces were used for background corrections. There was no need to regenerate surfaces since the ProteOn protein interaction array system allows to run up to six binding experiments on an identical surface in parallel.
Data processing and analysis including kon, koff, and KD determination were performed with the ProteOn Manager™ software version 3.1.0.6. Sensorgrams were fitted by applying a Langmuir 1:1 binding model (Rmax set at global) and dissociation constants were calculated from kon and koff.

[3] = target: B1; assay: cell-based or functional assay
[4] = target: B1; assay: cell-based or functional assay; remark: listed apart in the source
[5] = target: B1; assay: solution equilibrium titration (SET), constant Fab with NOV1401 titrated in solution, free Fab captured on biotinylated NOV1401, 1:1 fit; average of n=2
Description: (§1) After washing the plate again three times, 30 μl of detection reagent (LumiGLO Peroxidase Chemiluminescent Substrate, KPL#54-61-01) was added to each well. Electrochemiluminescence (ECL) signals were generated and detected immediately with a luminescence imager (SpectraMax M5, Molecular Devices, LLC).
(§2) Average ECL-signals were calculated from duplicate measurements within each assay. Data were baseline adjusted by subtracting the lowest value from all data points and plotted against the corresponding antigen concentration.

[6] = target: B1; assay: Solution equilibrium titration (SET): constant Fab, NOV1401 titrated in solution, free Fab captured on biotinylated NOV1401, luminescence (RLU) read, 1:1 fit
Description: as §1, §2

[7] = target: B1; assay: solution equilibrium titration (SET), constant Fab with NOV1401 titrated in solution, free Fab captured on biotinylated NOV1401, 1:1 fit; average of n=3
Description: as §1, §2

Chain of Human FXI in normal human plasma (P03951 19-625 C226S limits assumed): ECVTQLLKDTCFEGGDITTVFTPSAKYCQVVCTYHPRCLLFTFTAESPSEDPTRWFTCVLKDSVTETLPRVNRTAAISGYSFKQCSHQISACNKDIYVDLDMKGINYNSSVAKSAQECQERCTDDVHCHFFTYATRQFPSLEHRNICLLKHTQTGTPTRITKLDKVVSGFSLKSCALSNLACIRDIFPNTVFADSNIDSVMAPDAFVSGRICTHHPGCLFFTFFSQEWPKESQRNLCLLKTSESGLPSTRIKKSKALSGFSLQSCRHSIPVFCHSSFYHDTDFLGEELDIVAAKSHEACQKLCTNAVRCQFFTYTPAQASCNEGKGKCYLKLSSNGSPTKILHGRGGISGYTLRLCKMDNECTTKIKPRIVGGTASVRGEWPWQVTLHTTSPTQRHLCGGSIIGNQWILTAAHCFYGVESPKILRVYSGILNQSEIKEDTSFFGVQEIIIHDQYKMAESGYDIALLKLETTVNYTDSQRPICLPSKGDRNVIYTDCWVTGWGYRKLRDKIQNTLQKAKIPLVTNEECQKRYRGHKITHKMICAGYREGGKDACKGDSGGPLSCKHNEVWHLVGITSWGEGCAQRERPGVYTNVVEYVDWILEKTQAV

IC50 of NOV1401 for reduction of peak thrombin in the TGA in human plasma [1] [nM] | Kd [2] [nM] | percentage reversal of the NOV1401 effect on thrombin generation (TGA), NOV1401/anti NOV1401 ratio 1/1 (n/n) [3] [%] | percentage reversal of the NOV1401 effect on thrombin generation (TGA), NOV1401/anti NOV1401 ratio 1/3 (n/n) [3] [%] | percentage reversal of the NOV1401 effect on thrombin generation (TGA), NOV1401/anti NOV1401 ratio 1/10 (n/n) [3] [%] | percentage reversal of NOV1401 aPTT prolongation, NOV1401/anti NOV1401 ratio 1/1 (n/n) [4] [%] | percentage reversal of NOV1401 aPTT prolongation, NOV1401/anti NOV1401 ratio 1/3 (n/n) [4] [%] | percentage reversal of NOV1401 aPTT prolongation, NOV1401/anti NOV1401 ratio 1/10 (n/n) [4] [%] | Kd [5] [nM] | Kd [6] [nM] | Kd [7] [nM] | Binder
50 |  |  |  |  |  |  |  |  |  |  | B1
 | 10.1 | 18 | 41 | 37 | 9 | 22 | 38 |  |  |  | IDT6 anti-NOV1401 Fab (Fab, V domains shown, Human Fab with a lambda light chain; The heavy chain entry is VH-CH1 (Fd); also called antidote) VH: QVQLVQSGAEVKKPGESLKISCKGSGYSFTNYWIGWVRQMPGKGLEWMGIIFPGVSYTKYSPSFQGQVTISADKSISTAYLQWSSLKASDTAMYYCARGSDQTLRGSRAMDYWGQGTLVTVSS VL: QSALTQPASVSGSPGQSITISCTGTSSDVGISNYVSWYQQHPGKAPKLMIYEVSNRPSGVSNRFSGSKSGNTASLTISGLQAEDEADYYCQSYTSLNYVFGGGTKLTVLG
 | 0.24 | 31 | 47 | 67 | 9 | 35 | 58 | 0.1 |  |  | IDT3 anti-NOV1401 Fab (Fab, V domains shown, Human Fab; The heavy chain entry is VH-CH1 (Fd); also called antidote) VH: QVQLVESGGGLVKPGGSLRLSCAASGFTFQSAAVHWVRQAPGKGLEWVGRIKSKADGGTTDYAAPVKGRFTISRDDSKNTLYLQMNSLKTEDTAVYYCARDSPSISSYSIPYFSGMDVWGQGTLVTVSS VL: DIQMTQSPSSLSASVGDRVTITCRASQGIRAWLNWYQQKPGKAPKLLIYAASSLQSGVPSRFSGSGSGTDFTLTISSLQPEDFATYYCHQYITHPPTFGQGTKVEIKR
 | 1.92 | 41 | 61 | 72 | 10 | 25 | 46 | 0.68 |  |  | IDT9 anti-NOV1401 Fab (Fab, V domains shown, Human Fab; The heavy chain entry is VH-CH1 (Fd); also called antidote) VH: QVQLVQSGAEVKKPGASVKVSCKASGYTFTNYYVHWVRQAPGQGLEWMGWINPYNGNTNYAQKFQGRVTMTRDTSISTAYMELSRLRSEDTAVYYCARGASSIRMSYYLDVWGQGTLVTVSS VL: DIQMTQSPSSLSASVGDRVTITCRASQSISNYLNWYQQKPGKAPKLLIYAASNLQSGVPSRFSGSGSGTDFTLTISSLQPEDFATYYCFQYTHSPATFGQGTKVEIKR
 | 0.33 | 50 | 66 | 71 | 16 | 37 | 54 | 0.96 | 0.16 |  | IDT7 anti-NOV1401 Fab (Fab, V domains shown, Human Fab; The heavy chain entry is VH-CH1 (Fd); also called antidote) VH: QVQLVESGGGLVKPGGSLRLSCAASGFTFSSNAMHWVRQAPGKGLEWVGRIKSKTDGGTTDYAAPVKGRFTISRDDSKNTLYLQMNSLKTEDTAVYYCARDHYYYPFAYWGQGTLVTVSS VL: DIQMTQSPSSLSASVGDRVTITCRASQSIRYNLAWYQQKPGKAPKLLIYAASSLQSGVPSRFSGSGSGTDFTLTISSLQPEDFATYYCHQYIAKPITFGQGTKVEIKR
 | 5.97 | 37 | 45 | 57 | 12 | 25 | 40 | 1.19 |  |  | IDT10 anti-NOV1401 Fab (Fab, V domains shown, Human Fab; The heavy chain entry is VH-CH1 (Fd); also called antidote) VH: QVQLVQSGAEVKKPGASVKVSCKASGYTFTNYYVHWVRQAPGQGLEWMGWINPYSGNTNYAQKFQGRVTMTRDTSISTAYMELSRLRSEDTAVYYCARGASSIRMSYYLDVWGQGTLVTVSS VL: DIQMTQSPSSLSASVGDRVTITCRASQSISNYLNWYQQKPGKAPKLLIYAASNLQSGVPSRFSGSGSGTDFTLTISSLQPEDFATYYCFQYTHSPATFGQGTKVEIKR
 | 0.31 | 33 | 53 | 60 | 10 | 27 | 39 | 0.97 |  |  | IDT4 anti-NOV1401 Fab (Fab, V domains shown, Human Fab; The heavy chain entry is VH-CH1 (Fd); also called antidote) VH: QVQLVESGGGLVKPGGSLRLSCAASGFTFSSAAVHWVRQAPGKGLEWVGRIKSKASGGTTDYAAPVKGRFTISRDDSKNTLYLQMNSLKTEDTAVYYCARDSPSISSYSIPYFSGMDVWGQGTLVTVSS VL: DIQMTQSPSSLSASVGDRVTITCRASQGIRAWLNWYQQKPGKAPKLLIYAASSLQSGVPSRFSGSGSGTDFTLTISSLQPEDFATYYCHQYITHPPTFGQGTKVEIKR
 | 0.35 | 55 | 56 | 72 | 17 | 42 | 56 |  |  | 0.14 | IDT5 anti-NOV1401 Fab (Fab, V domains shown, Human Fab; The heavy chain entry is VH-CH1 (Fd); also called antidote) VH: QVQLVESGGGLVKPGGSLRLSCAASGFTFSSAAVHWVRQAPGKGLEWVGRIKSKADAGTTDYAAPVKGRFTISRDDSKNTLYLQMNSLKTEDTAVYYCARDSPSISSYSIPYFSGMDVWGQGTLVTVSS VL: DIQMTQSPSSLSASVGDRVTITCRASQGIRAWLNWYQQKPGKAPKLLIYAASSLQSGVPSRFSGSGSGTDFTLTISSLQPEDFATYYCHQYITHPPTFGQGTKVEIKR
 | 2.15 | 41 | 56 | 69 | 8 | 25 | 42 |  | 0.96 | 0.16 | IDT8 anti-NOV1401 Fab (Fab, V domains shown, Human Fab; The heavy chain entry is VH-CH1 (Fd); also called antidote) VH: QVQLVESGGGLVKPGGSLRLSCAASGFTFSSNAMHWVRQAPGKGLEWVGRIKSKTSGGTTDYAAPVKGRFTISRDDSKNTLYLQMNSLKTEDTAVYYCARDHYYYPFAYWGQGTLVTVSS VL: DIQMTQSPSSLSASVGDRVTITCRASQSIRYNLAWYQQKPGKAPKLLIYAASSLQSGVPSRFSGSGSGTDFTLTISSLQPEDFATYYCHQYIAKPITFGQGTKVEIKR
 | 0.44 | 49 | 55 | 55 | 12 | 45 | 64 | 0.11 |  |  | IDT1 anti-NOV1401 Fab (Fab, V domains shown, The heavy chain entry is VH-CH1 (Fd); also called antidote) VH: QVQLLESGGGLVQPGGSLRLSCAASGFTFSDYAMSWVRQAPGKGLEWVSVIDYSSSNTYYADSVKGRFTISRDNSKNTLYLQMNSLRAEDTAVYYCAREGYSYRSIRFDYWGQGTLVTVSS VL: DIQMTQSPSSLSASVGDRVTITCRASQSISSNLNWYQQKPGKAPKLLIYAASNLQSGVPSRFSGSGSGTDFTLTISSLQPEDFATYYCLQFDHTPFTFGQGTKVEIKR
